Data from US20210398607A1, “METHODS FOR DESIGNING ANTIBODY SMALL-MOLECULE CONJUGATES” (priority 2020, published 2021).

Columns and labels:
[1] = molecular target: T1, mSA (monomeric streptavidin construct), wild type; assay: SPR, immobilized mSA
T1 construct: also called mSAWT
T1 chain: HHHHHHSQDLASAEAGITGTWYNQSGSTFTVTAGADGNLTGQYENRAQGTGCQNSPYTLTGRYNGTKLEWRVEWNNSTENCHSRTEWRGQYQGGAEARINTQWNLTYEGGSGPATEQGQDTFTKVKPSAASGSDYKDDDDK

[2] = molecular target: T1, mSA (monomeric streptavidin construct), …; assay: SPR, 25 °C, immobilized mSA
[3] = molecular target: T2, mSAS27A (mSA with single mutation S27A); assay: SPR, conjugate injected at 62.5, 125, 250, 500 nM and 1 uM over immobilized mSAS27A; biological replicate 2; fit curve
T2 chain: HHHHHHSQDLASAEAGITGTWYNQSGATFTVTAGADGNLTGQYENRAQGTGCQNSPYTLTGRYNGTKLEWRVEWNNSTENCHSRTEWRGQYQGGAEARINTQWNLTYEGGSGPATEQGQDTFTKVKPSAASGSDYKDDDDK

[4] = molecular target: T2, mSAS27A (mSA with single mutation S27A); assay: SPR, conjugate injected at 62.5, 125, 250, 500 nM and 1 µM over immobilized mSAS27A; fit curve; one of three replicates
[5] = molecular target: T2, mSAS27A (mSA with single mutation S27A); assay: SPR; reference mSAS27A/biotin
[6] = molecular target: T2, mSAS27A (mSA with single mutation S27A); assay: SPR
[7] = molecular target: T1, mSA (monomeric streptavidin construct), …; assay: SPR, conjugate injected at 1, 2.5, 5, 10, 20 nM over immobilized mSAWT; fit curve; replicate 3
[8] = molecular target: T1, mSA (monomeric streptavidin construct), …; assay: SPR, conjugate injected at 1, 2.5, 5, 10, 20 nM over immobilized mSAWT; fit curve; one of three replicates
[9] = molecular target: T1, mSA (monomeric streptavidin construct), …; assay: SPR, 25 °C; reference mSA on immobilized biotin
[10] = molecular target: T2, mSAS27A (mSA with single mutation S27A); assay: SPR, conjugate injected at 62.5, 125, 250, 500 nM and 1 uM over immobilized mSAS27A; biological replicate 3; fit curve
[11] = molecular target: T1, mSA (monomeric streptavidin construct), …; assay: SPR, conjugate injected at 1, 2.5, 5, 10, 20 nM over immobilized mSAWT; fit curve; replicate 2
[12] = molecular target: T1, mSA (monomeric streptavidin construct), …; assay: SPR, conjugate injected at 0.5, 1, 2.5, 5, 10 nM over immobilized mSAWT; fit curve; replicate 3
[13] = molecular target: T1, mSA (monomeric streptavidin construct), …; assay: SPR, conjugate injected at 0.5, 1, 2.5, 5, 10 nM over immobilized mSAWT; fit curve; one of three replicates
[14] = molecular target: T1, mSA (monomeric streptavidin construct), …; assay: SPR
[15] = molecular target: T1, mSA (monomeric streptavidin construct), …; assay: SPR; variant v149
[16] = molecular target: T1, mSA (monomeric streptavidin construct), …; assay: SPR, conjugate injected at 0.5, 1, 2.5, 5, 10 nM over immobilized mSAWT; fit curve; replicate 2
[17] = molecular target: T1, mSA (monomeric streptavidin construct), …; assay: SPR, conjugate injected at 0.5, 1, 2.5, 5, 10 nM over immobilized mSAWT; fit curve; one of three replicates
[18] = molecular target: T1, mSA (monomeric streptavidin construct), …; assay: SPR, conjugate injected at 0.5, 1, 2.5, 5, 10 nM over immobilized mSAWT; fit curve; replicate 2
[19] = molecular target: T1, mSA (monomeric streptavidin construct), …; assay: SPR, conjugate injected at 0.5, 1, 2.5, 5, 10 nM over immobilized mSAWT; fit curve; replicate 3
[20] = molecular target: T1, mSA (monomeric streptavidin construct), …; assay: SPR; variant v119

B1: 4NBX.B nanobody, wild type (unconjugated) (VHH)
VHH: QVQLQESGGGLAQAGGSLRLSCAASGRTFSMDPMAWFRQPPGKEREFVAAGSSTGRTTYYADSVKGRFTISRDNAKNTVYLQMNSLKPEDTAVYYCAAAPYGANWYRDEYAYWGQGTQVTVSS
notes: also called Wildtype 4NBX.B; 4NBX.B WT
binding result [1]: no binding (tested: 100 nM)

B2: 4NBX.B-biotin103 (VHH)
VHH: QVQLQESGGGLAQAGGSLRLSCAASGRTFSMDPMAWFRQPPGKEREFVAAGSSTGRTTYYADSVKGRFTISRDNAKNTVYLQMNSLKPEDTAVYYCAAAPYGCNWYRDEYAYWGQGTQVTVSS
notes: also called 4NBX.B-biotin103 WT
Kd [2]: 1.8 nM | Kd [3]: 269 nM | koff [3]: 0.296 s⁻¹ | kon [3]: 1.1e+06 M⁻¹ s⁻¹ | Kd [4]: 279 nM | koff [4]: 0.12 s⁻¹ | kon [4]: 430000 M⁻¹ s⁻¹ | fold affinity improvement over biotin/mSAS27A [5]: 5 fold | Kd [6]: 245 nM | Kd [7]: 1.92 nM | koff [7]: 0.00225 s⁻¹ | kon [7]: 1.17e+06 M⁻¹ s⁻¹ | Kd [8]: 1.86 nM | koff [8]: 0.00221 s⁻¹ | kon [8]: 1.19e+06 M⁻¹ s⁻¹ | fold affinity improvement over biotin/mSA [9]: 4 fold | Kd [10]: 188 nM | koff [10]: 0.149 s⁻¹ | kon [10]: 790000 M⁻¹ s⁻¹ | Kd [11]: 1.59 nM | koff [11]: 0.00197 s⁻¹ | kon [11]: 1.24e+06 M⁻¹ s⁻¹

B3: 4NBX.B-biotin103 v149 (VHH)
VHH: QVQLQESGGGLAQAGGSLRLSCAASGRTFSRSPMAWFRQPPGKEREFVAAGSSTGRTTYYADSVKGRFTISRDNAKNTVYLQMNSLKPEDTAVYYCAAAPYGCARYRDEYAYWGQGTQVTVSS
Kd [12]: 0.14 nM | koff [12]: 0.00081 s⁻¹ | kon [12]: 5.84e+06 M⁻¹ s⁻¹ | Kd [13]: 0.11 nM | koff [13]: 0.000923 s⁻¹ | kon [13]: 8.7e+06 M⁻¹ s⁻¹ | fold KD improvement over biotin/mSAWT [14]: > 20 fold | fold faster kon compared to v119 [14]: ~4 fold | koff ratio relative to v119 [14]: ~0.2 fold | Kd [15]: 0.12 nM | Kd [16]: 0.11 nM | koff [16]: 0.00106 s⁻¹ | kon [16]: 9.78e+06 M⁻¹ s⁻¹

B4: 4NBX.B-biotin103 v119 (VHH)
VHH: QVQLQESGGGLAQAGGSLRLSCAASGRTFSHAPMAWFRQPPGKEREFVAAGSSTGRTTYYADSVKGRFTISRDNAKNTVYLQMNSLKPEDTAVYYCAAAPYGCSHYRDEYAYWGQGTQVTVSS
fold KD improvement over 4NBX.B-biotin103 WT [14]: ~2 fold | Kd [17]: 0.78 nM | koff [17]: 0.00177 s⁻¹ | kon [17]: 2.3e+06 M⁻¹ s⁻¹ | Kd [18]: 0.76 nM | koff [18]: 0.00186 s⁻¹ | kon [18]: 2.45e+06 M⁻¹ s⁻¹ | Kd [19]: 1.11 nM | koff [19]: 0.00213 s⁻¹ | kon [19]: 1.93e+06 M⁻¹ s⁻¹ | Kd [20]: 0.9 nM
